Data published in patent publication US20220251236A1 (Boehringer Ingelheim, published 2022).

Legend:
[1] = target: T1, T CELLS (human, UniProt P07766;P09693); assay: flow cytometry titration on purified human T cells, PE anti-human secondary, x-fold over background
T1 construct: native, on the surface of purified human T cells; The sheets print only 'T CELLS'; also called human CD3 on purified human T cells; CD3 epsilon/gamma complex
Text: Cells (T cells or human SCLC cells) were stained with increasing concentrations of two-step purified DLL3/CD3 binding proteins with increasing concentrations in FACS buffer (PBS/0.5% BSA/0.05% sodium azide). Bound molecules were detected with PE-conjugated anti-human secondary antibody (Sigma-Aldrich, #P8047).

[2] = target: T2, EGF1+2; assay: flow cytometry on HEK293 cells expressing the DLL3 subdomain construct, 1.6 nM binder, PE anti-human secondary, control: secondary antibody only
T2 construct: also called Hu DLL3 EGF1+2 on HEK293 cells
T2 membrane-anchored DLL3 subdomain construct: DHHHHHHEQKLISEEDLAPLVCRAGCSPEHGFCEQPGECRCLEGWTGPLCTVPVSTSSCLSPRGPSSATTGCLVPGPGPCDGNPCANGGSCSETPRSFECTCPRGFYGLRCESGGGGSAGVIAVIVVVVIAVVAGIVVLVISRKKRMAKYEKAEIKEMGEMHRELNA
Method in brief: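 Binders tested on HEK293 cells displaying the DLL3 subdomain construct; bound molecules detected by flow cytometry using PE-conjugated anti-human secondary antibody. Negative control: cells with secondary antibody only.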

[3] = target: T3, Human DLL3-His (human, UniProt Q9NYJ7 27-492); assay: SPR (ProteOn XPR36), bispecific captured on protein A/G, DLL3 as analyte, Example 4A
T3 construct: also called huDLL3-His; hu DLL3
T3 sequence: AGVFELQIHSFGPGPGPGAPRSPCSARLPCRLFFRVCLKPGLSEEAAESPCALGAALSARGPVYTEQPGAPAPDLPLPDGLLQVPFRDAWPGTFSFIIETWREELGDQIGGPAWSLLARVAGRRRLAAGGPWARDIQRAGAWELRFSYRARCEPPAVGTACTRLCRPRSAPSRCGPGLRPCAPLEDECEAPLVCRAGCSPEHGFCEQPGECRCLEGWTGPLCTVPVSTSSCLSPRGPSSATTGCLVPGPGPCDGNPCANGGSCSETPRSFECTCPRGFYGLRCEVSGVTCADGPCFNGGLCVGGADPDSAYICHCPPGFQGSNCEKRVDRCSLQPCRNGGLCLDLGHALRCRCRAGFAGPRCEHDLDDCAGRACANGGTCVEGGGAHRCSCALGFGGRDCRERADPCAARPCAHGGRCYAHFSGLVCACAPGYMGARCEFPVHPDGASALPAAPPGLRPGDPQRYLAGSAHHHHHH
Description: The binding affinity of purified DLL3/CD3 bispecific constructs for recombinant human and cyno DLL3-ECD and Fc-fusion proteins of human and cyno CD3 εγ subunits was determined by Surface Plasmon Resonance (SPR), using a ProteOn XPR36 instrument (Bio-Rad). The running buffer and all dilutions (except where stated) were done in PBS-T-EDTA. The GLM sensor chip (Bio-Rad) was normalized and pre-conditioned as per the manufacturer's recommendations. The sensor chip was activated with equal mixture of EDC/s-NHS in the horizontal direction for 300 sec at a flow rate of 30 ul/min and immobilized with protein A/G (20 ug/ml in 10 mM acetate pH 4.5) in the horizontal direction for 300 sec at a flowrate of 30 ul/min resulting in ˜5000 RU of protein A/G on the surface. The sensor chip was deactivated with 1M ethanolamine HCl in the horizontal direction for 300 sec at a flowrate of 30 μl/min.
For binding kinetic determination to DLL3, bispecific molecules were captured individually on the protein A/G surface vertically for 250 sec at a flowrate of 25 μl/min. The baseline was stabilized by injecting PBS-T-EDTA for 60 sec at a flowrate of 40 μl/min horizontally. The analyte (hu DLL3 or cy DLL3) was injected horizontally over the captured antibody for 600 sec at a flowrate of 40 μl/min and a dissociation for 2700 sec.
The inter spot (interactions with sensor surface) and blank (PBS-T-EDTA) were subtracted from the raw data.

T1 sequence (P07766 23-207, chain 1 of 2): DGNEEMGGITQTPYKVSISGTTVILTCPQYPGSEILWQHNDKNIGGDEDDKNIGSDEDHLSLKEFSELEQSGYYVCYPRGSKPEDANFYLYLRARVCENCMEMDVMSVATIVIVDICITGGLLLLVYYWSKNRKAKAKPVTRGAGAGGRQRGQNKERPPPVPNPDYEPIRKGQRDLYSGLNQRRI
T1 sequence (P09693 23-182, chain 2 of 2): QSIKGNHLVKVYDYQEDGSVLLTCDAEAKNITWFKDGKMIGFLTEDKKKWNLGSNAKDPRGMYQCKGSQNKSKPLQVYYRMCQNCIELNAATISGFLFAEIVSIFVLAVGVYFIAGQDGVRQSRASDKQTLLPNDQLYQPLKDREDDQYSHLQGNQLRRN

B1: DLL3#2/CD3#1 (bispecific antibody, human IgG1, kappa, lambda, L234A L235A)
chain 1: DIQMTQSPSAMSASVGDRVTITCRASQGISNYLAWFQQKPGKVPEPLIYAASSLQSGVPSRFSGSGSVTEFTLTISSLQPEDFATYYCLQHNSSPYTFGQGTKLEIKRTVAAPSVFIFPPSDEQLKSGTASVVCLLNNFYPREAKVQWKVDNALQSGNSQESVTEQDSKDSTYSLSSTLTLSKADYEKHKVYACEVTHQGLSSPVTKSFNRGECGGGGSEGKSSGSGSESKSTEGKSSGSGSESKSTGGGGSQVQLVQSGAEVKKPGASVKVSCKASGYTFTSYYMHWVRQAPGQGLEWMGIINPSGGSTSYAQKFQGRVTMTRDTSTSTVYMELSSLRSEDTAVYYCARGEAVGGNYYYYGMDVWGQGTTVTVSSASTKGPSVFPLAPSSKSTSGGTAALGCLVKDYFPEPVTVSWNSGALTSGVHTFPAVLQSSGLYSLSSVVTVPSSSLGTQTYICNVNHKPSNTKVDKRVEPKSCDKTHTCPPCPAPEAAGGPSVFLFPPKPKDTLMISRTPEVTCVVVDVSHEDPEVKFNWYVDGVEVHNAKTKPREEQYNSTYRVVSVLTVLHQDWLNGKEYKCKVSNKALPAPIEKTISKAKGQPREPQVYTLPPSREEMTKNQVSLWCLVKGFYPSDIAVEWESNGQPENNYKTTPPVLDSDGSFFLYSKLTVDKSRWQQGNVFSCSVMHEALHNHYTQKSLSLSPG
chain 2: EAVVTQEPSLTVSPGGTVTLTCRSSTGAVTTSNYANWVQEKPGQLPRGLIGGTNKRAPWVPARFSGSLLGGKAALTLSGAQPEDEAEYFCALWYSNLWVFGGGTKLTVLGQPKAAPSVTLFPPSSEELQANKATLVCLISDFYPGAVKVAWKADGSPVNTGVETTTPSKQSNNKYAASSYLSLTPEQWKSHRSYSCQVTHEGSTVEKTVAPAECSGGGGSEGKSSGSGSESKSTEGKSSGSGSESKSTGGGGSEVQLVESGGGLVQPGGSLKLSCAASGFTFNTYAMNWVRQAPGKGLEWVARIRSKYNNYATYYADSVKDRFTISRDDSKNTAYLQMNNLKTEDTAVYYCVRHGNFGNSYVSWFAYWGQGTLVTVSAASTKGPSVFPLAPSSKSTSGGTAALGCLVKDYFPEPVTVSWNSGALTSGVHTFPAVLQSSGLYSLSSVVTVPSSSLGTQTYICNVNHKPSNTKVDKRVEPKSCDKTHTCPPCPAPEAAGGPSVFLFPPKPKDTLMISRTPEVTCVVVDVSHEDPEVKFNWYVDGVEVHNAKTKPREEQYNSTYRVVSVLTVLHQDWLNGKEYKCKVSNKALPAPIEKTISKAKGQPREPQVYTLPPSREEMTKNQVSLSCAVKGFYPSDIAVEWESNGQPENNYKTTPPVLDSDGSFFLVSKLTVDKSRWQQGNVFSCSVMHEALHNRFTQKSLSLSPG
notes: Heterodimer of one DLL3 chain and one CD3 chain (scFab-Fc, knob-in-hole)
[1]
  EC50 (read off the curve): ~10 nM

B2: DLL3#5/CD3#1 (bispecific antibody, human IgG1, kappa, lambda, L234A L235A)
chain 1: not shown
chain 2: EAVVTQEPSLTVSPGGTVTLTCRSSTGAVTTSNYANWVQEKPGQLPRGLIGGTNKRAPWVPARFSGSLLGGKAALTLSGAQPEDEAEYFCALWYSNLWVFGGGTKLTVLGQPKAAPSVTLFPPSSEELQANKATLVCLISDFYPGAVKVAWKADGSPVNTGVETTTPSKQSNNKYAASSYLSLTPEQWKSHRSYSCQVTHEGSTVEKTVAPAECSGGGGSEGKSSGSGSESKSTEGKSSGSGSESKSTGGGGSEVQLVESGGGLVQPGGSLKLSCAASGFTFNTYAMNWVRQAPGKGLEWVARIRSKYNNYATYYADSVKDRFTISRDDSKNTAYLQMNNLKTEDTAVYYCVRHGNFGNSYVSWFAYWGQGTLVTVSAASTKGPSVFPLAPSSKSTSGGTAALGCLVKDYFPEPVTVSWNSGALTSGVHTFPAVLQSSGLYSLSSVVTVPSSSLGTQTYICNVNHKPSNTKVDKRVEPKSCDKTHTCPPCPAPEAAGGPSVFLFPPKPKDTLMISRTPEVTCVVVDVSHEDPEVKFNWYVDGVEVHNAKTKPREEQYNSTYRVVSVLTVLHQDWLNGKEYKCKVSNKALPAPIEKTISKAKGQPREPQVYTLPPSREEMTKNQVSLSCAVKGFYPSDIAVEWESNGQPENNYKTTPPVLDSDGSFFLVSKLTVDKSRWQQGNVFSCSVMHEALHNRFTQKSLSLSPG
notes: as for B1
[2]
  binding result: binds

B3: DLL3#3/CD3#2 (bispecific antibody, human IgG1, kappa, lambda, L234A L235A)
chain 1: DIQMTQSPSAMSASVGDRVTITCRASQGISNYLVWFQQKPGKAPKRLIYAVSSLYSGVPSRFSGSGSGTEFTLTISSLQPEDFATYYCLQHDSYPYTFGQGTKLEIKRTVAAPSVFIFPPSDEQLKSGTASVVCLLNNFYPREAKVQWKVDNALQSGNSQESVTEQDSKDSTYSLSSTLTLSKADYEKHKVYACEVTHQGLSSPVTKSFNRGECGGGGSEGKSSGSGSESKSTEGKSSGSGSESKSTGGGGSQVQLVQSGAEVKKPGASVKVSCKASGYTFTSYYVHWVRQAPGQGLEWMVIINPGGGTTSYAQKFLGRVTMTRDTSTNTVYMELKSLRSEDTAVYYCARGEAVTGNYFYYGMDVWGQGTTVTVSSASTKGPSVFPLAPSSKSTSGGTAALGCLVKDYFPEPVTVSWNSGALTSGVHTFPAVLQSSGLYSLSSVVTVPSSSLGTQTYICNVNHKPSNTKVDKRVEPKSCDKTHTCPPCPAPEAAGGPSVFLFPPKPKDTLMISRTPEVTCVVVDVSHEDPEVKFNWYVDGVEVHNAKTKPREEQYNSTYRVVSVLTVLHQDWLNGKEYKCKVSNKALPAPIEKTISKAKGQPREPQVYTLPPSREEMTKNQVSLWCLVKGFYPSDIAVEWESNGQPENNYKTTPPVLDSDGSFFLYSKLTVDKSRWQQGNVFSCSVMHEALHNHYTQKSLSLSPG
chain 2: EAVVTQEPSLTVSPGGTVTLTCRSSTGAVTTSNYANWVQEKPGQLPRGLIGGTNKRAPWVPARFSGSLLGGKAALTLSGAQPEDEAEYFCALWYSNLWVFGGGTKLTVLGQPKAAPSVTLFPPSSEELQANKATLVCLISDFYPGAVKVAWKADGSPVNTGVETTTPSKQSNNKYAASSYLSLTPEQWKSHRSYSCQVTHEGSTVEKTVAPAECSGGGGSEGKSSGSGSESKSTEGKSSGSGSESKSTGGGGSEVQLVESGGGLVQPGGSLKLSCAASGFTFNTYAMNWVRQAPGKGLEWVARIRSKYINYATYYADSVKDRFTISRDDSKNTAYLQMNNLKTEDTAVYYCVRHGNFGNSYVSWFAYWGQGTLVTVSAASTKGPSVFPLAPSSKSTSGGTAALGCLVKDYFPEPVTVSWNSGALTSGVHTFPAVLQSSGLYSLSSVVTVPSSSLGTQTYICNVNHKPSNTKVDKRVEPKSCDKTHTCPPCPAPEAAGGPSVFLFPPKPKDTLMISRTPEVTCVVVDVSHEDPEVKFNWYVDGVEVHNAKTKPREEQYNSTYRVVSVLTVLHQDWLNGKEYKCKVSNKALPAPIEKTISKAKGQPREPQVYTLPPSREEMTKNQVSLSCAVKGFYPSDIAVEWESNGQPENNYKTTPPVLDSDGSFFLVSKLTVDKSRWQQGNVFSCSVMHEALHNRFTQKSLSLSPG
notes: as for B1
[3]
  Kd: < 0.01 nM
